Reference: publication PMC2063623

Molecular target: pCMV-BD-DLC-1 (human) (UniProt Q96QB1)
Experiment: two-hybrid

UniProt Q96QB1, sequence (Q96QB1 whole entry): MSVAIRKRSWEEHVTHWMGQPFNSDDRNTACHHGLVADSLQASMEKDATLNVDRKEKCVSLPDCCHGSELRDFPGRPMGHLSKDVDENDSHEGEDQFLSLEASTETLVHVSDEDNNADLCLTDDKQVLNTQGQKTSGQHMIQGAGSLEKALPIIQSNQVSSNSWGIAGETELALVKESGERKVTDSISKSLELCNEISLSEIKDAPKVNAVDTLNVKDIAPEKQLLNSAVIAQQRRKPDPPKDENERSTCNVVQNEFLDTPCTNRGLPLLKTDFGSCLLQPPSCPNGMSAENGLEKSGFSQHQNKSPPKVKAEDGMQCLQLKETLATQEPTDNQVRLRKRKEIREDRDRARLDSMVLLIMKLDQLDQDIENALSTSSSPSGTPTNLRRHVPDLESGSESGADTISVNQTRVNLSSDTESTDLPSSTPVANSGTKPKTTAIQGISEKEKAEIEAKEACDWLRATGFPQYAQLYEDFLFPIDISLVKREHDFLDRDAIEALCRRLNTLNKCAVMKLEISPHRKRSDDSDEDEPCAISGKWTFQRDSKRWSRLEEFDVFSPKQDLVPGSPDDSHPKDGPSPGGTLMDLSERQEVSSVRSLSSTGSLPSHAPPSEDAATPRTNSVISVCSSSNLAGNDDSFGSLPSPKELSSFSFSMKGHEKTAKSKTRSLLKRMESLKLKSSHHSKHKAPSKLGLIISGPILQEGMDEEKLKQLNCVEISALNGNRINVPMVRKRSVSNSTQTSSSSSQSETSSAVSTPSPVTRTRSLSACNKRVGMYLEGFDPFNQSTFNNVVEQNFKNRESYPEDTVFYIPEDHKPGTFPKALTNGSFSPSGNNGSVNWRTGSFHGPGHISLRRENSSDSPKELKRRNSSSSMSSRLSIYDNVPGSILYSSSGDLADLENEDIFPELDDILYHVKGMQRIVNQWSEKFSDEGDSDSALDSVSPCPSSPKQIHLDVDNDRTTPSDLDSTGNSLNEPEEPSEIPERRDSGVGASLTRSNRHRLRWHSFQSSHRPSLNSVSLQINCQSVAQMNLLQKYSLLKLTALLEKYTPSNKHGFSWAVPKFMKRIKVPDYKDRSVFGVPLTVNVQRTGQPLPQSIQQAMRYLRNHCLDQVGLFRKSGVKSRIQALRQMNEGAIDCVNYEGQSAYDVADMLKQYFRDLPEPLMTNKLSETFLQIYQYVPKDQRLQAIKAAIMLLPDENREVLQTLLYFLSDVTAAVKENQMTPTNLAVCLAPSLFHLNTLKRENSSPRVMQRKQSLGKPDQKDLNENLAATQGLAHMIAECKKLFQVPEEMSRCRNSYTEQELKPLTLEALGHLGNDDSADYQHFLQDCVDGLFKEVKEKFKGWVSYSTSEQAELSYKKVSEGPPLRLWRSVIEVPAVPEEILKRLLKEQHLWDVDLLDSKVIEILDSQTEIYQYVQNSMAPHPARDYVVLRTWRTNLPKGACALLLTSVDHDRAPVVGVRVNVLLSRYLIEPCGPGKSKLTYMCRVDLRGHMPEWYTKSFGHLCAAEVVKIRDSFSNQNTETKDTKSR

Substance: pCMV-AD-cten (from UniProt Q8IZW8 1-715) (natural protein)
- fold enhancement of luciferase activity: 4 fold
